Data published in patent US20210134388A1, “Hyperstable Constrained Peptides and Their Design” (University of Washington, priority 2016, published 2021).
Positions of bridges follow the written chain, without caps; N, C: chain ends. Non-standard residues stand in square brackets, D forms with d. No end group written: not given here.

What was measured:
Assay type in all cases: physicochemical
[1] = Thermal denaturation monitored by CD spectroscopy; settings: CD wavelength scans, heated to 95° C. and cooled back; 10 mM sodium phosphate buffer (pH 7.0)
Method: (§1) The stability of the designs to thermal and chemical denaturation was assessed by CD spectroscopy. Samples were heated to 95° C. (FIG. 2c), or incubated with increasing concentrations of guanidinium hydrochloride (GdnHCl) (FIG. 2d). The contribution of disulfide bonds to protein folding was assessed by incubating samples with a ˜100-fold molar excess of the reductant tris (2-carboxyethyl) phosphine (TCEP).
(§2) Circular dichroism (CD) wavelength and temperature scans were recorded on AVIV model 420 or Jasco J-1500 CD spectrometer. For thermal denaturation, peptides samples were prepared at 0.07-0.2 mg/ml final concentration in 10 mM sodium phosphate buffer (pH 7.0). Wavelength scans from 195 nm to 260 nm were recorded at 25° C., 55° C., 95° C., and again after cooling back to 25° C. For chemical denaturation experiments, samples for each peptide were prepared in the presence of 0 M to 6 M GdnHCl concentrations. The concentration of GdnHCl was measured by refractometry. Peptide samples were also prepared in the presence of 2.5 mM TCEP (TCEP was pre-equilibrated to pH 7.0 prior to addition), and incubated for 3 hours. Peptide concentrations were the same across all samples. Wavelength scans from 190 nm to 260 nm were recorded for each sample in 0.1 cm cuvette.

[2] = Chemical denaturation with guanidinium hydrochloride (GdnHCl) monitored by CD spectroscopy; settings: 0 M to 6 M GdnHCl
Method: as §1, §2

[3] = Reduction of disulfide bonds with TCEP, folding monitored by CD spectroscopy; settings: 2.5 mM TCEP (~100-fold molar excess), incubated for 3 hours
Method: as §1, §2

[4] = NMR secondary 1Hα chemical shifts at a range of temperatures
Method: FIG. 19: Secondary ^1Hα chemical shifts at a range of temperatures for peptide NC_cHLHR_D1 (SEQ ID NO:09). NMR spectra were collected at 25° C. (black bars), 55° C. (blue bars), 75° C. (red bars), and again after cooling to 25° C. (green bars).
Each non-canonical peptide (1 mg) was dissolved in […] of 10% D20/90% H2O or 100% D2O (˜pH 4). NMR spectra were recorded at 298K on a Bruker Avance-600 spectrometer. Two-dimensional NMR experiments included TOCSY with an […] MLEV-17 spin lock, NOESY (200 ms mixing time), ECOSY, as well as natural-abundance ^13C and ^15N HSQC. Solvent suppression was achieved using excitation sculpting. Spectra were processed using Topspin 2.1 then analyzed using CcpNmr Analysis. Chemical shifts were referenced to internal 2,2-dimethyl-2-silapentane-5-sulfonate (DSS).

## AEDCERIRKELEKNPNDEIKKKLEKCQA [gHH_44]
[1]
  stability to thermal denaturation (CD spectra): resistant to thermal denaturation

## CKQRRRYRGSEEECRKYAEELSRRTGCEVEVECET [gEHE_06]
[1]
  stability to thermal denaturation (CD spectra): thermally and chemically stable
[2]
  stability to chemical denaturation (CD spectra): thermally and chemically stable
[3]
  folding / secondary structure in the presence of the reductant TCEP (CD spectra): remained folded in the presence of TCEP

## CQTWRrVSPEECRKYKEEYnCVRCTE (CQTWR[dR]VSPEECRKYKEEY[dN]CVRCTE; disulfide 1-21, 12-24) [NC_EHE_D1]
[1]
  stability to thermal denaturation (CD spectra): only a small decrease

## CRCHITSSCVRVEGDNGEEYRYCSSDEEDLRRFCKEMQKQC [gEEEH_04]
[1]
  stability to thermal denaturation (CD spectra): resistant to both thermal and chemical denaturation
[2]
  stability to chemical denaturation (CD spectra): resistant to both thermal and chemical denaturation

## EERRYKRCGQDEERVRRECKERGERQNCQYQIRKEGNCYVCEIRC [gEHEE_06]
[1]
  stability to thermal denaturation (CD spectra): thermostable
[2]
  stability to chemical denaturation (CD spectra): completely resistant to chemical denaturation

## HDPEKRKECEKKYTDPKKREECKRKA (cyclo(HDPEKRKECEKKYTDPKKREECKRKA); disulfide 9-22; not fully specified (some residues)) [NC_cHH_D1]
[2]
  stability to chemical denaturation (CD spectra): do not chemically denature
[3]
  folding / secondary structure in the presence of the reductant TCEP (CD spectra): lost secondary structure

## NDKCKELKKRYPNCEVRCDpPRYEVHC (NDKCKELKKRYPNCEVRCD[dP]PRYEVHC; disulfide 14-27, 4-18; not fully specified; printed as NDKCKELKKRYPNCEVRCDpPRYEVHC) [NC_HEE_D1]
[1]
  stability to thermal denaturation (CD spectra): no loss in secondary structure
[2]
  stability to chemical denaturation (CD spectra): does not denature in 6 M GdnHCl

## NPEDCRQDPEANKSPEECKKLK (cyclo(NPEDCRQDPEANKSPEECKKLK); disulfide 5-18; not fully specified (some residues)) [NC_cHHH_D1]
[2]
  stability to chemical denaturation (CD spectra): some loss of secondary structure in 6M GdnHCl
[3]
  folding / secondary structure in the presence of the reductant TCEP (CD spectra): lost secondary structure

## NPELQRKCKELdTRpeaerkcreeSD (cyclo(NPELQRKCKEL[dD]TR[dP][dE][dA][dE][dR][dK][dC][dR][dE][dE]SD); disulfide 8-21 (inferred)) [NC_cHLHR_D1]
[1]
  stability to thermal denaturation (CD spectra): no change was observable on heating to 95 °C
[4]; NMR spectra at 25° C., 55° C., 75° C.
  change of secondary 1Hα chemical shifts (secondary structure) on heating: no significant loss of secondary structure resulting from heating
[4]; NMR, again after cooling to 25° C.
  aggregation or irreversible conformation change on heating (secondary chemical shifts after cooling): not aggregation-prone or otherwise prone to irreversible conformation changes on heating

## PCECDVNGETYTVSSSEECERLCRKLGVTNCRVHCG [gEEHE_02]
[1]
  stability to thermal denaturation (CD spectra): impervious to both thermal and chemical denaturation
[2]
  stability to chemical denaturation (CD spectra): impervious to both thermal and chemical denaturation
[3]
  folding / secondary structure in the presence of the reductant TCEP (CD spectra): remained partially folded in the presence of TCEP

## PCEDLKERLKKLGMSEECRQRLEKMCKEGTSEDAERMARNCES [gHHH_06]
[1]
  stability to thermal denaturation (CD spectra): partially unfolds upon heating to 95 °C but returns to the folded state upon cooling

## PVTWCVRIpPTVRCTVRp (cyclo(PVTWCVRI[dP]PTVRCTVR[dP]); disulfide 5-14 (inferred)) [NC_cEE_D1]
[2]
  stability to chemical denaturation (CD spectra): do not chemically denature
[3]
  folding / secondary structure in the presence of the reductant TCEP (CD spectra): not changed by reduction of the central disulfide bond

## QCYTFRSECTNKEFTVCRPNPEEVEKEARRTKEEECRK [gEEH_04]
[1]
  stability to thermal denaturation (CD spectra): less stable than the others to thermal denaturation

## SQETRKKCTEMKKKFKNCEVRCDESNHCVEVRCSDTKYTLC [gHEEE_02]
[1]
  stability to thermal denaturation (CD spectra): resistant to both thermal and chemical denaturation
[2]
  stability to chemical denaturation (CD spectra): resistant to both thermal and chemical denaturation

## TCEIRVTDTHCKVHCGTQEYKVPPGRTLKVGNCRFTYHDTTCTVECR [gEEEEEE_02]
[1]
  stability to thermal denaturation (CD spectra): resistant to both thermal and chemical denaturation
[2]
  stability to chemical denaturation (CD spectra): resistant to both thermal and chemical denaturation
